T1: StBax1 mutant R86A/R87A (Sulfolobus tokodaii, UniProt Q970I1 1-481, R86A | R87A)
T1 construct: Expression and purification of the mutants are not described
T1 sequence: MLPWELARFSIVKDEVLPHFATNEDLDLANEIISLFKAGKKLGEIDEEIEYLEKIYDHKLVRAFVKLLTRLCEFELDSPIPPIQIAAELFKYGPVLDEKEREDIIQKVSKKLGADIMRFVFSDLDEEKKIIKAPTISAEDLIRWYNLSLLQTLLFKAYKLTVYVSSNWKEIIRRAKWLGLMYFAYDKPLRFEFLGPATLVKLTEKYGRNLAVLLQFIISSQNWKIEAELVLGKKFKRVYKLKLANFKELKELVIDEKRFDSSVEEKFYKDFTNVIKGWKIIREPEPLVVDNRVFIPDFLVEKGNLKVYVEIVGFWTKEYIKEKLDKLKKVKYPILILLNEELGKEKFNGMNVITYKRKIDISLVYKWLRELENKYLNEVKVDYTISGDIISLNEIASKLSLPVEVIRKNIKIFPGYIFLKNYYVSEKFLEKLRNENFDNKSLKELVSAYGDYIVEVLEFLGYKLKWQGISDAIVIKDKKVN

T2: AfBax1 mutant D133A/E135A (Archaeoglobus fulgidus, UniProt O29890 1-468, D133A | E135A)
T2 construct: Expression and purification of the mutants are not described; also called AfBax1 with substitutions D133A/E135A
T2 sequence: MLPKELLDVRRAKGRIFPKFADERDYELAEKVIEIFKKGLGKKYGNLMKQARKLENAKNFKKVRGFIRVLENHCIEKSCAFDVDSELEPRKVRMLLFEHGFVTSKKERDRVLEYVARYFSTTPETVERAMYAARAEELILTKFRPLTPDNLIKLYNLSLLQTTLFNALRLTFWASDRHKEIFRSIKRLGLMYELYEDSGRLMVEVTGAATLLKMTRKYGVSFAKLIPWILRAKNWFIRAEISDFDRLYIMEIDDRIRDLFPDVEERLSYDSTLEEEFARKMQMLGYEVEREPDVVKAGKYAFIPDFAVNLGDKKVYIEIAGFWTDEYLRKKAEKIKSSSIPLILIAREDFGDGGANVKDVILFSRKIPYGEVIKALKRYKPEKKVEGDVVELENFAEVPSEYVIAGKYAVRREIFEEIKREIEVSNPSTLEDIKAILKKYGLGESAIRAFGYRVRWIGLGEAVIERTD

B1: His6-AfBax1 (Archaeoglobus fulgidus Bax1) (enzyme)
chain: MLPKELLDVRRAKGRIFPKFADERDYELAEKVIEIFKKGLGKKYGNLMKQARKLENAKNFKKVRGFIRVLENHCIEKSCAFDVDSELEPRKVRMLLFEHGFVTSKKERDRVLEYVARYFSTTPETVERAMYADREEELILTKFRPLTPDNLIKLYNLSLLQTTLFNALRLTFWASDRHKEIFRSIKRLGLMYELYEDSGRLMVEVTGAATLLKMTRKYGVSFAKLIPWILRAKNWFIRAEISDFDRLYIMEIDDRIRDLFPDVEERLSYDSTLEEEFARKMQMLGYEVEREPDVVKAGKYAFIPDFAVNLGDKKVYIEIAGFWTDEYLRKKAEKIKSSSIPLILIAREDFGDGGANVKDVILFSRKIPYGEVIKALKRYKPEKKVEGDVVELENFAEVPSEYVIAGKYAVRREIFEEIKREIEVSNPSTLEDIKAILKKYGLGESAIRAFGYRVRWIGLGEAVIERTD
notes: residues 1-467 are seen in the crystal of the untagged form; Used in ITC as His6-AfBax1; also called wild type AfBax1; source: E. coli Rosetta, from pET-28b, purified in the same way as His6-AfXPB

Experiments:
[1] = target: StBax1 mutant L89A/F90A/P94S/V95S (Sulfolobus tokodaii) (UniProt Q970I1); assay: ITC; His6-StXPB (30 uM) injected into His6-StBax1 (3 uM); 16 injections of 2.36 ul; 40 C; 10 mM Tris-Cl pH 7.5, 200 mM NaCl, 5% glycerol, 0.01% sodium azide; single binding site fit; similar procedures for mutants
[2] = target: B1; assay: ITC; His6-AfXPB (139.5 uM) or His6-AfXPB-CTD (202 uM) injected into His6-AfBax1 (13.3 uM); 16 injections of 2.36 ul; 40 C; 10 mM Tris-Cl pH 7.5, 500 mM NaCl, 5% glycerol, 0.01% sodium azide; single binding site fit; similar procedures for mutants; settings: both partners purified
StBax1 mutant R86A/R87A = target: T1, StBax1 mutant R86A/R87A; assay: ITC; His6-StXPB (30 uM) injected into His6-StBax1 (3 uM); 16 injections of 2.36 ul; 40 C; 10 mM Tris-Cl pH 7.5, 200 mM NaCl, 5% glycerol, 0.01% sodium azide; single binding site fit; similar procedures for mutants; settings: both partners purified
[3] = target: the molecule itself; assay: SEC; S200 size-exclusion chromatography of the proteins alone and mixed; calibrated with Conalbumin (75 kDa), Ovalbumin (44 kDa) and Lactalbumin (14 kDa)
[4] = target: T2, AfBax1 mutant D133A/E135A; assay: ITC; His6-AfXPB (139.5 uM) or His6-AfXPB-CTD (202 uM) injected into His6-AfBax1 (13.3 uM); 16 injections of 2.36 ul; 40 C; 10 mM Tris-Cl pH 7.5, 500 mM NaCl, 5% glycerol, 0.01% sodium azide; single binding site fit; similar procedures for mutants; settings: both partners purified

Molecule	Kd [2] [nM]	stoichiometry N [2]	stoichiometry N [3]	further results
His6-StXPB (Sulfolobus tokodaii XPB, XPBII) (from UniProt Q970I2 1-439) (enzyme)	–	–	–	stoichiometry N [1]: 1
His6-AfXPB C-terminal half (residues 234-452) (domain or fragment, Archaeoglobus fulgidus, UniProt O29889 234-452, looked up, also called AfXPB-CTD; His6-AfXPB-CTD; source: purified) LAGKHLAKYTIKRIFVPLAEDERVEYEKREKVYKQFLRARGITLRRAEDFNKIVMASGYDERAYEALRAWEEARRIAFNSKNKIRKLREILERHRKDKIIIFTRHNELVYRISKVFLIPAITHRTSREEREEILEGFRTGRFRAIVSSQVLDEGIDVPDANVGVIMSGSGSAREYIQRLGRILRPSKGKKEAVLYELISRGTGEVNTARRRKNAAKGAA	0.5	1	–	–
StXPB mutant E357A/E360A (enzyme, Sulfolobus tokodaii, Expression and purification of the mutants are not described) MVYLRYFKGLILSDAYAPGLKWSDELKAYSALAFKYRDVRKYFLEKEIEVEENVIDSLPFPLIKDKIELRDYQAEAVKAWLKEKRGIIVLPTGAGKTQVALKIVSIMKVATLIVVPTIDLITQWKERINKYLDFDPGIIGGGEDSLKGITVITYDSAYTRAEELGNKFPLLIFDEVHHLPSEGYSIMAQLFASPYRLGLTATPERDDGKHELYPILVGPIVYRKSVEELAGKYIAKYKIKKLYVSLTNEEKKRYDGLRKKLKDFLSSRGLKLQNLDDFHRLVKLAAKDKEAREALLAWHESLNIAVNSQSKIEKLREILQEYKNEKIIVFTRDTQMAYRISKTFLIPVVTYKTDKDAREAILQKFRDGEYRVIVASTVFDEGVDVPDATLAIVMGGYGTKRQFLQRLGRILRKKDKEALLIEIVTKGTADYRLSRRRRE	–	–	–	Kd (StBax1 mutant R86A/R87A): 64.9 nM; stoichiometry N (StBax1 mutant R86A/R87A): 1
B1	–	–	2	–
His6-AfXPB (Archaeoglobus fulgidus XPB) (enzyme, UniProt O29889 1-452, looked up, residues 1-445 and 17 residues of the N-terminal His6 tag are seen in the crystal; also called full length AfXPB; source: E. coli Rosetta (DE3) pLysS, purified (heat step, HisTrap, HiTrap SP, Sephacryl S-200); not shown: His6, N-terminal, kept) MQMIAEIYYERGTIVVKGDAHVPHAKFDSRSGTYRALAFRYRDIIEYFESNGIEFVDNAADPIPTPYFDAEISLRDYQEKALERWLVDKRGCIVLPTGSGKTHVAMAAINELSTPTLIVVPTLALAEQWKERLGIFGEEYVGEFSGRIKELKPLTVSTYDSAYVNAEKLGNRFMLLIFDEVHHLPAESYVQIAQMSIAPFRLGLTATFEREDGRHEILKEVVGGKVFELFPDSLAGKHLAKYTIKRIFVPLAEDERVEYEKREKVYKQFLRARGITLRRAEDFNKIVMASGYDERAYEALRAWEEARRIAFNSKNKIRKLREILERHRKDKIIIFTRHNELVYRISKVFLIPAITHRTSREEREEILEGFRTGRFRAIVSSQVLDEGIDVPDANVGVIMSGSGSAREYIQRLGRILRPSKGKKEAVLYELISRGTGEVNTARRRKNAAKGAA	15.2	1	–	Kd [4]: 157 nM; stoichiometry N [4]: 1
His6-StBax1 (Sulfolobus tokodaii Bax1) (enzyme, UniProt Q970I1 1-481, looked up, Homodimer when alone in solution (size-exclusion chromatography); one copy in the heterodimer with StXPB; source: E. coli Rosetta (DE3) pLysS, from pET15b, purified (heat step, ammonium sulfate, HisTrap, gel filtration)) MLPWELARFSIVKDEVLPHFATNEDLDLANEIISLFKAGKKLGEIDEEIEYLEKIYDHKLVRAFVKLLTRLCEFELDSPIPPIQIRRELFKYGPVLDEKEREDIIQKVSKKLGADIMRFVFSDLDEEKKIIKAPTISAEDLIRWYNLSLLQTLLFKAYKLTVYVSSNWKEIIRRAKWLGLMYFAYDKPLRFEFLGPATLVKLTEKYGRNLAVLLQFIISSQNWKIEAELVLGKKFKRVYKLKLANFKELKELVIDEKRFDSSVEEKFYKDFTNVIKGWKIIREPEPLVVDNRVFIPDFLVEKGNLKVYVEIVGFWTKEYIKEKLDKLKKVKYPILILLNEELGKEKFNGMNVITYKRKIDISLVYKWLRELENKYLNEVKVDYTISGDIISLNEIASKLSLPVEVIRKNIKIFPGYIFLKNYYVSEKFLEKLRNENFDNKSLKELVSAYGDYIVEVLEFLGYKLKWQGISDAIVIKDKKVN	–	–	2	–

Reference: publication PMC7293015 (Nucleic Acids Research, 2020)
